In PMC7188244:

Key:
[1] = target: HA-tagged SQSTM1-NUP214^FGmut fusion protein (human) (UniProt P35658); test: co-IP; nuclear lysates of stably transduced MEFs; anti-HA antibody overnight at 4°C, Protein G Dynabeads; washes with 150 and 175 mM NaCl buffer; immunoblot with anti-Crm1 and anti-HA, Crm1 signal/HA signal quantified on LI-COR Odyssey; cells untreated or treated with LMB (10 nM, 2 hours)
[2] = target: HA-tagged SQSTM1-NUP214 fusion protein (human) (UniProt P35658); test: as above

Substance | percent reduction of Crm1 binding by LMB (10 nM, 2 hours) [1] [%] | percent reduction of Crm1 binding against SQSTM1-NUP214 [1] [%] | percent reduction of Crm1 binding by LMB (10 nM, 2 hours) [2] [%]
Crm1 (chromosome region maintenance 1) (from UniProt Q6P5F9 1-1071) | 52 |  | 
Crm1 (chromosome region maintenance 1) (from UniProt Q6P5F9 1-1071) (natural protein) |  | > 50 | 58
